This passage reports IC50 and fold decrease of IC50 against unconjugated hIgG results from patent US20100209424A1.

The IC50 is the concentration at which inhibition is half-maximal.

Assay [1] has as its target human FcRn (GFP-hFcRn construct lacking the endosomal targeting domain, expressed on the plasma membrane of human 293 cells) (human) (UniProt P55899). The assay is described as follows: flow cytometry competition against hIgG-Alexa Fluor 647 (40 µg/ml) on 293 cells expressing GFP-hFcRn, pH 5.8. A general note: A flow cytometer gives signals particle by particle.
Assay [2] shares this target. The assay is described as follows: flow cytometry competition against hIgG-Alexa Fluor 647 on 293 cells expressing GFP-hFcRn, pH 5.8.

UniProt P55899, sequence (P55899 24-321): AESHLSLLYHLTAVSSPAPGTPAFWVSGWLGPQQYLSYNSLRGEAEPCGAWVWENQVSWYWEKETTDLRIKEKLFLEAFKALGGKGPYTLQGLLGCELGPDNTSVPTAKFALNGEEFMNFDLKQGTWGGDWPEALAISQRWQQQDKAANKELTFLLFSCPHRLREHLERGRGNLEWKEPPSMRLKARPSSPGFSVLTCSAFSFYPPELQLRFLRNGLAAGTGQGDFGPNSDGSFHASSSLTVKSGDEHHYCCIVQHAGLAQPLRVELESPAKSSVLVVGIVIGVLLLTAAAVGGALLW

For the substance “biotinylated human immunoglobulin G (hIgG-biotin) (antibody)”, the IC50 in assay [1] turned out to be 5.4 µM. Further, in assay [2], the fold decrease of IC50 against unconjugated hIgG was determined as 2 fold.
Substance “human immunoglobulin G (hIgG), unconjugated (antibody)” came in with an IC50 in assay [1] of 11.4 µM.
